Test results as given in patent US20220154156A1, “PROTEINS AND METHODS FOR DISRUPTING BACTERIAL COMMUNICATION” (REGENTS OF THE UNIVERSITY OF MINNESOTA, priority 2019, published 2022).

Tests used:
[1] = 25° C., purified protein sample; cited from earlier work
[2] = test system: Pectobacterium carotovorum CIR354; experiment: Soft rot potato assay; format: in vivo; conditions: single spraying of 1 mL, 10 mg/mL
Method: (§1) FIG. 30A-30F show control of plant infections by a single spraying of 1 mL of lactonase solution (10 mg/mL) on plant leaves and crop. (A) and (B) Soft rot potato assay.
(§2) Specifically, we could establish infection systems for corn, wheat, and barley plants, and a crop infection system for potato (tubers and leaves).

[3] = test system: suspension soil microbial community; experiment: Effect of lactonase on suspension soil community; format: cell-based; conditions: 0.5 mg/mL, days 3 and 7
Method: Inoculum were prepared by re-suspending about 5 grams of soil (taken outside GortnerLab building, Saint Paul Campus, Saint Paul, Minn., USA) in 40 mL of water. After a homogenous mixture was achieved, the suspension was lightly centrifuged (5 min, 500×g) and 200 uL of the cloudy supernatant was added to 30 mL of LB media and allowed to grow overnight. This inoculum was used to inoculate 15× diluted LB media (in water) cultures. […] Samples were collected for DNA extraction after 3 and 7 days.
All samples were processed using Mothur v1.35.1. For each sample, 1,250 sequences were used for final analyses. […] Analysis of similarity (ANOSIM) and analysis of molecular variances (AMOVA) were used to evaluate the beta diversity (community composition) among samples using Bray-Curtis dissimilarity matrices (BC) (Bray & Curtis 1957; Clarke 1993). Ordination of Bray-Curtis matrices was performed using principal coordinate analysis (PCoA) to further analyze diversity of sample days throughout the tank (Anderson & Willis 2003). To visualize the distribution of taxonomies and diversities in microbial communities among the samples, R v3.3.1 was used to conduct the normalized relative abundance and OTUs at genus level^45. All of alpha values evaluated at α=0.05.

[4] = test system: complex soil microbial community; experiment: Biofilm quantification in flow-through recirculating bioreactor; format: cell-based; conditions: over 21 days
Method: After overnight induction (18° C., 0.2% L-Arabinose, 200 RPM shaking), cells overexpressing proteins were centrifuged (4,400×g, 20 min, 4° C.) and re-suspended in 100 mM potassium phosphate buffer, pH 7, at a concentration of 0.4 g/mL wet weight (0.2 g/mL for the 1× lactonase beads). Gel beads (1 mm diameter) containing the lactonase/control bacteria cultures were made using a dripping method while gelation occurred, using a method similar to a previously used protocol^41 400 mg PEG (average molecular weight, 10,000 Da) was mixed with 4 mL acetic acid (0.01M) until the PEG dissolved. […]
The flow-through system used in this study consisted of three 3-liter tanks set up in parallel. […] Each tank contained three liters of 15× diluted LB media in water and a pre-broken 96-stripwell plate was submerged to the bottom (so that individual wells could be harvested for either biofilm quantification or DNA extraction). […]
Inside each of the tanks sat two submerged 96-stripwell plates. […] Individual wells were extracted in triplicate for crystal violet biofilm quantification (OD550 nm) using a similar protocol as previously described^13. […] To quantify biofilm, the remaining crystal violet stained to the wells was solubilized with 125 μL of 30% acetic acid and this solution was read on a spectrophotometer at 550 nm. […]

[5] = test system: Xanthomonas translucens pv. translucens LMG876; experiment: Barley leaf infection; format: in vivo; conditions: single spraying of 1 mL, 10 mg/mL
Method: as §1, §2

[6] = test system: Clavibacter michiganensis subsp. Nebraskensis; experiment: Corn infection assay; format: in vivo; conditions: lactonase spray
Method: FIG. 31 show control of plant infections by a single spraying of 1 mL of lactonase solution (10 mg/mL) on corn leaves. The Viking maize seed (40-30UP) were grown in Euro pot (diameter 8 inch) with sterilized soil mixture (50 standard soil/50 Germinating Mix) in a green house under diurnal conditions with 16 hours lights at 22° C. and 8 hours dark at 18° C. Plant leaves were infected with Clabibacter michiganensis subsp. nebraskensis by dipping the clipped leaf into cell suspension ([…]). Shown are duplicates plants for the control treatment (left) and lactonase treatment (right).
Moreover, we specifically established a corn infection assay using the pathogen Clavibacter michiganensis subsp. Nebraskensis.

B1: SsoPox W263I: improved variant of the hyperthermostable lactonase SsoPox from Sulfolobus solfataricus, exhibiting higher catalytic rates (protein, UniProt Q97VT7 1-314, looked up, variant W263I)
Aryldialkylphosphatase: MRIPLVGKDSIESKDIGFTLIHEHLRVFSEAVRQQWPHLYNEDEEFRNAVNEVKRAMQFGVKTIVDPTVMGLGRDIRFMEKVVKATGINLVAGTGIYIYIDLPFYFLNRSIDEIADLFIHDIKEGIQGTLNKAGFVKIAADEPGITKDVEKVIRAAAIANKETKVPIITHSNAHNNTGLEQQRILTEEGVDPGKILIGHLGDTDNIDYIKKIADKGSFIGLDRYGLDLFLPVDKRNETTLRLIKDGYSDKIMISHDYCCTIDIGTAKPEYKPKLAPRWSITLIFEDTIPFLKRNGVNEEVIATIFKENPKKFFS
In the case of B1, the time remaining stable [1] is given as > 300 days, the “maceration of potato slices” value [2] is given as “less maceration” and the “composition of suspension community vs inactive variant” value [3] is given as “communities are significantly different”. For the same molecule, the “reduction of biofilm formation” value [4] was 2 fold, the “leaf spots on barley leaves” value [5] was “Absence of leaf spots” and the “symptoms of infection in corn plants” value [6] was “protected the plant from showing any symptoms of infection”.
